# Experimental data reported in US20090035322A1 (Regeneron, published 2009).
# Substitutions are numbered along the chain they refer to.
# B1: 9C11-14 (antibody, V domains shown)
# VH: QVQLVESGGDSVKPGGSLRLSCAASGFTFSDSYMTWIRQAPGKGLEWVSFISSSGSTIYYADSVKGRFTISRDNVKKSLYLQMNRLRAEDTAVYYCAREEPGNYVYYGMDVWGQGTTVTVSS
# VL: EIVVTQSPATLSLSPGERATLSCRTSQTTTSYLAWYRQKPGQAPRLLIYDASNRAAGIPARFSGSGSGTDFTLTINSLEPEDFAVYYCQLRTNWITFGQGTRLEIK
# notes: Fully human IgG, constant region not specified; also called 9C11-14N
# B2: 9D4-7 (antibody, V domains shown)
# VH: EVQLVESGGGLVQPGRSLRLSCAASGFTFYDYAMHWVRQAPGKGLEWVSGISWNSDTIGYADSVKGRFTISRDNAKNSLYLQMNSLRAEDTALYYCTKDGSYGHFYSGLDVWGQGTTVTVSS
# VL: EIVLTQSPATLSLSPGERATLSCRASQSVSSYLAWYQQKPGQAPRLLIYVASNRATGIPARFSGSGSGTDFTLTISSLEPDDFAVYYCQQRYYWPLTFGGGTKVEIK
# notes: Fully human IgG, constant region not specified; also called 9D4-7N
# B3: 2B7-7 (antibody, V domains shown)
# VH: EVQLVESGGGLVQPGRSLRLSCAASGFTFRDYTMHWVRQGPGKGLEWVSGISWNSDYIGYADSVKGRFTISRDNAKNSLYLQMNSLRVEDTALYYCAKLSGTYRDYFYGVDVWGQGTTVTVSS
# VL: B2 VL with T20A, S31N, V50D, D81E, Y92S, Y93N, K107R
# notes: Fully human IgG, constant region not specified; also called 2B7-7N
# B4: 6F6-1 (antibody, V domains shown)
# VH: AVQLVESGGGLVQPGRSLRLSCAASGFTFRDYAMHWVRQGPGKGLEWVSGISWNTDYIGYADSVKGRFTISRDNAKNSLYLQMNSLRPEDTALYYCAKDARYGRDNYYGMDVWGQGTTVTVSS
# VL: EIVMTQSPATLSVSPGERATLSCRASQSVSHNLAWYQQKPGQAPRLLIYGAYTRATGIPDRFSGTGSGTEFTLTISSLQSEDFAVFYCQQYNNWPLTFGGGTKVEIK
# notes: Fully human IgG, constant region not specified; also called 6F6-1N
# B5: 9E4-20 (antibody, V domains shown)
# VH: B4 VH with A1E, R30Y, G40A, T55S, P88A, D105N, Q115P
# VL: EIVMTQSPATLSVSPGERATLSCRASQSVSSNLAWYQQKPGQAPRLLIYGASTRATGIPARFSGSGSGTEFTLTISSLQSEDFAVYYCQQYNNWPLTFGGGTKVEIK
# notes: Fully human IgG, constant region not specified; also called 9E4-20N
# B6: 8G6-5 (antibody, V domains shown)
# VH: EVQLAESGGDLVQSGRSLRLSCAASGITFHDYAMHWVRQPPGKGLEWVSGISWNSDYIGYADSVKGRFTISRDNAKKSLYLQMNSLRPDDTALYYCVKDFHYGSGSNYGMDVWGQGTTVTVSP
# VL: EIVMTQSPATLSMSPGERATLSCRASQSVSRNLAWYQQKVGQAPRLLISGASTRATGIPARFSGSGSGTEFTLTINSLQSEDFAVYYCQQSNDWPLTFGQGTRLEIK
# notes: Fully human IgG, constant region not specified; also called 8G6-5N
# B7: 10E3-17 (antibody, V domains shown)
# VH: EVQLVESGGGLVQPGRSLRLSCAASGFTFRDYAMHWVRQVPGKGLEWVSGISWNRGTIGYADSVKGRFTISRDNAKNSLFLQMNSLRADDTALYYCAKDHYYGSGSPYGMDVWGQGTTVTVSS
# VL: EIVLTQSPATLALSPGERATLSCRASQSVSKYLAWYQQKPGQAPRLLIYDASKRVTGIPGRLSGSGSGTDFTLTISSLEPEDFALYYCQQSSNWPITFGQGTRVEIK
# notes: Fully human IgG, constant region not specified; also called 10E3-17N
# B8: 10F2-13 (antibody, V domains shown)
# VH: EEQLVESGGDLVQPGRSLRLSCAASGFTFHDYTMHWVRQAPGKGLEWVSGISWNSGSLGYADSVKGRFTISRDNAKKSLYLQMNSLRAEDTALYYCAKDPSYGSGSYHSYYGMDVWGQGTTVTVSS
# VL: EIVLTQSPATLSLSPGERATLSCWASQSISRYLVWYQQKCGQAPRLLIYEASKRATGIPVRFSGSGSGTDFTLTISSLESEDFAVYYCQQRFNWPLTFGGGTKVEIK
# notes: Fully human IgG, constant region not specified; also called 10F2-13N; ab 10F2-13
# B9: 6B9-4 (antibody, V domains shown)
# VH: B8 VH with L58I, K77N, A88I, H108Y, S109Y
# VL: B2 VL with A34V, K39R, V50E, P80S, D81E, Y92S, Y93N
# notes: Fully human IgG, constant region not specified; also called 6B9-4N
# Target: T1, human CD20 (human, UniProt P11836 1-297)
# T1 sequence: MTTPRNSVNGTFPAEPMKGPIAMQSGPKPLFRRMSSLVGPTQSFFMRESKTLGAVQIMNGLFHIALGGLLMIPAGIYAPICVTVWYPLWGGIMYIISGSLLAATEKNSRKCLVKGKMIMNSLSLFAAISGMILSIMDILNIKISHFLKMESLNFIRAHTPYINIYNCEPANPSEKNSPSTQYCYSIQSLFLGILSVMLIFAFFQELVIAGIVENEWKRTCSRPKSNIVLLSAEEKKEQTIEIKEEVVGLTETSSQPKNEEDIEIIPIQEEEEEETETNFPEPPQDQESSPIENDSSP
# Assay: cell-based or functional assay
"CDC, Daudi EC50","CDC, RL EC50",Binder
7.14 nM,12 nM,B1
0.22 nM,0.83 nM,B2
0.24 nM,1.03 nM,B3
0.56 nM,1.2 nM,B4
1.53 nM,1.7 nM,B5
0.21 nM,1.06 nM,B6
0.59 nM,7.8 nM,B7
0.17 nM,0.36 nM,B8
0.34 nM,0.97 nM,B9

# Target: T1, human CD20
# Assay: cell-based or functional assay
# Remark: another data set of the same source
Binder,"% Cytotoxicity (CDC, Daudi), 0 hour","% Cytotoxicity (CDC, Daudi), 1 hour","% Cytotoxicity (CDC, Daudi), 6 hour"
B1,55.8%,22.3%,12.9%
B2,99.4%,99%,96%
B3,99.4%,99.4%,98.3%
B6,99.6%,99.2%,97.7%
B8,99.6%,99.2%,98.5%

# Target: T1, human CD20
# Assay: cell-based or functional assay
# Remark: another data set of the same source
Binder,"% Cytotoxicity (CDC, Daudi), 0 hour","% Cytotoxicity (CDC, Daudi), 1 hour","% Cytotoxicity (CDC, Daudi), 6 hour"
B4,97.1%,97.1%,76.4%
B5,67.4%,31.2%,49.9%
B7,97%,96.2%,79.2%
B9,98.1%,98.5%,97.5%

# Target: T2, mutant human CD20 #3 (A170S, P172S) (human, UniProt P11836 1-297)
# T2 construct: Stably expressed on MG87 cells
# T2 chain: T1 sequence with A170S, P172S
# Assay: FACS, mutant-hCD20 MG87 cells; 100%=best antibody
# Procedure: (§1) Briefly, approximately 1×10⁶ cells from each stably transfected cell line expressing a mutant human CD20 were collected and incubated with each anti-human antibody, at 10 μg/ml, on ice for 1 hr, followed by incubation with APC-conjugated goat anti-human IgG (Jackson Immunolabs), at 10 μg/ml, on ice for 45 min. For each antibody, binding to each mutant human CD20 was assessed by flow cytometry.
row,Percent of Binding to Mutant Human CD20,Binder
1,0%,B1
2,70%,B2
3,87%,B3
4,100%,B4
5,57%,B5
6,65%,B6
7,6%,B7
8,55%,B8
9,64%,B9

# Target: T3, mutant human CD20 #5 (P172S) (human, UniProt P11836 1-297)
# T3 construct: Stably expressed on MG87 cells
# T3 sequence: T1 sequence with P172S
# Assay: FACS, mutant-hCD20 MG87 cells; 100%=best antibody
# Procedure: as §1
row,Percent of Binding to Mutant Human CD20,Binder
1,29%,B1
2,66%,B2
3,88%,B3
4,100%,B4
5,57%,B5
6,76%,B6
7,49%,B7
8,69%,B8
9,67%,B9

# Target: T4, mutant human CD20 #6 (Y77F, N166D) (human, UniProt P11836 1-297)
# T4 construct: Stably expressed on MG87 cells
# T4 chain: T1 sequence with Y77F, N166D
# Assay: FACS, mutant-hCD20 MG87 cells; 100%=best antibody
# Procedure: as §1
row,Percent of Binding to Mutant Human CD20,Binder
1,87%,B1
2,0%,B2
3,12%,B3
4,16%,B4
5,1%,B5
6,5%,B6
7,1%,B7
8,1%,B8
9,1%,B9

# Target: T5, mutant human CD20 #9 (N163D, N166D) (human, UniProt P11836 1-297)
# T5 construct: Stably expressed on MG87 cells
# T5 chain: T1 sequence with N163D, N166D
# Assay: FACS, mutant-hCD20 MG87 cells; 100%=best antibody
# Procedure: as §1
row,Percent of Binding to Mutant Human CD20,Binder
1,100%,B1
2,4%,B2
3,4%,B3
4,4%,B4
5,3%,B5
6,4%,B6
7,4%,B7
8,4%,B8
9,3%,B9
